Test results reported in paper doi:10.1101/2022.12.06.519310 (bioRxiv, 2022).
Ends that are not written are not given here. * marks the point of attachment. NHCH2CH2(5-OH-indol-3-yl) = Oc1ccc2[nH]cc(CCN*)c2c1

Target: full length recombinant WDR5 (human, UniProt P61964 1-334)
Assay: pull-down

binding result	Binder
binds	ARTKQTARKS (also: biotinylated, position not given here) [biotinylated H3 (1-10) unmodified peptide]
binds	ARTKQ(NHCH2CH2(5-OH-indol-3-yl))TARKS (also: biotinylated, position not given here) [biotinylated H3 (1-10) Q5ser peptide]
